{
  "source": "patent US20220041686A1",
  "about": "(Stanford University, published 2022)",
  "binders": {"B1": {"name": "B7H3-Fc (Fc fusion)", "chain": "LEVQVPEDPVVALVGTDATLCCSFSPEPGFSLAQLNLIWQLTDTKQLVHSFAEGQDQGSAYANRTALFPDLLAQGNASLRLQRVRVADEGSFTCFVSIRDFGSAAVSLQVAAPYSKPSMTLEPNKDLRPGDTVTITCSSYQGYPEAEVFWQDGQGVPLTGNVTTSQMANEQGLFDVHSILRVVLGANGTYSCLVRNPVLQQDAHSSVTITPQRSPTGAVEVQVPEDPVVALVGTDATLRCSFSPEPGFSLAQLNLIWQLTDTKQLVHSFTEGRDQGSAYANRTALFPDLLAQGNASLRLQRVRVADEGSFTCFVSIRDFGSAAVSLQVAAPYSKPSMTLEPNKDLRPGDTVTITCSSYRGYPEAEVFWQDGQGVPLTGNVTTSQMANEQGLFDVHSVLRVVLGANGTYSCLVRNPVLQQDAHGSVTITGQPMT", "notes": "Staining reagent for flow cytometry; not shown: Fc part"}},
  "assay_in_all_cases": "quantification of the flow cytometry plots of panel A (B7H3 Fc staining, CAR MFI), with or without 3 µM grazoprevir [Cont.) B]",
  "key": {"066": {"target": "T1, 066", "T1 construct": "Construct named only by number on the sheets; also called B7H3-cis SNIP scFv CAR with cleavage site 066"}, "065": {"target": "T2, 065", "T2 construct": "Construct named only by number on the sheets; also called B7H3-cis SNIP scFv CAR with cleavage site 065"}, "[1]": {"target": "T3, B7H3-SNIP-scFv CAR (extracellular; cis)", "T3 construct": "Only the full-length (uncleaved) CAR carries the scFv and is stained by B7H3 Fc; also called B7H3-cis SNIP scFv; B7H3-cis SNIP scFv CAR"}},
  "data": [
    {"binder": "B1", "values": [
      {"measurement": "fold CAR MFI, + Drug over - Drug", "setting": "066", "value": 129, "unit": "fold"},
      {"measurement": "fold CAR MFI, + Drug over - Drug", "setting": "065", "value": 157, "unit": "fold"},
      {"measurement": "fold CAR MFI, + Drug over - Drug", "setting": "[1]", "value": 70, "unit": "fold"}
    ]}
  ]
}
